{"source": "FireProtDB (doi:10.1110/ps.5101)", "proteins": {"B1": {"name": "Cytochrome c-551 wild type, P00099 (protein)", "chain": "MKPYALLSLLATGTLLAQGAWAEDPEVLFKNKGCVACHAIDTKMVGPAYKDVAAKFAGQAGAEAELAQRIKNGSQGVWGPIPMPPNAVSDDEAQTLAKWVLSQK"}}, "conditions": "Pseudomonas aeruginosa (strain ATCC 15692 / DSM 22644 / CIP 104116 / JCM 14847 / LMG 12228 / 1C / PRS 101 / PAO1); pH 7; 10 °C; GdnHCl; Fluorescence; sodium phosphate 50 mM; reversible: yes; whole UniProt chain shown", "data": [{"protein": "B1", "values": [{"measurement": "denaturant m value", "value": 3.3, "unit": "kcal/mol/M"}, {"measurement": "denaturant midpoint (higher = more stable)", "value": 1.8, "unit": "M"}, {"measurement": "unfolding free energy", "value": 6.1, "unit": "kcal/mol"}]}]}
